Assay results: the RNAGym collection of RNA variant scans (doi:10.1093/nar/gkz1192)

B1: CPEB3 Ribozyme (parent)
chain: UAACAGGGGGCCACAGCAGAAGCGUUCACGUCGCAGCCCCUGUCAGAUUCUGGUGAAUCUGCGAAUUCUGCUGUAUAUCUC

Variants of: B1
Experiment: self-cleavage, relative activity (ratio to wild type); higher = more cleavage; in vitro, sequencing
In short: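 CPEB3 self-cleaving ribozyme mutant libraries were made by rounds of error-prone PCR, barcoded, and transcribed in vitro with T7 RNA polymerase for 5 hours at 37°C. Cleavage occurred during transcription and a 15 min DNase I step before EDTA stop. RNAs were reverse transcribed with template switching and Illumina-sequenced, with DNA sequencing mapping barcodes to variants. Relative activity is the variant's cleaved/total read fraction divided by wild type's (minimum 5 reads), averaged across three batches.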

| Variant | self-cleavage |
| --- | --- |
| UAACAGGGGGCCAAAGCAGAAGCGUUCACGUUGCAGCCCCUGUCAGAUUCUGGUGAAUCUGCGAAUUCUGCUGUAUAUCUC [C14A C32U] | 0.21 |
| UAACAGGGGGCCAAAGCAGAAGCGUUCACGUCGCAGCCCCUGUCAGAUCCUGGUGAAUCUGCGAAUUCUGCUGUAUAUCUC [C14A U49C] | 0.23 |
| UAACAGGGGGCCUCAGCAGAAGCGUUCACGUCGCAGCCCCUGUCAGAUUCUGGUGAAUCUGCGAAUUCUGCUGUAAAUCUC [A13U U76A] | 1.11 |
| UAACAGGGGGCCUCAGCAGAAGCGUUCACGUCGCAGCCCCUGUCAGAUUCUGGUGAAUCUGCGAAUUCUGCUGUACAUCUC [A13U U76C] | 1.17 |
| UAACAGGGGGCCUCAGCAGAAGCGUUCACGUCGCAGCCCCUGUCAGAUUCUGGUGAAUCUGCGAAUACUGCUGUAUAUCUC [A13U U67A] | 0.7 |
| UAACAGGGGGCCUCAGCAGAAGCGUUCACGUCGCAGCCCCUGUCAGAUUCUGGUGAAUCUGCGAAUCCUGCUGUAUAUCUC [A13U U67C] | 0.3 |
| UAACAGGGGGCCUCAGCAGAAGCGUUCACGUCGCAGCCCCUGUCAGAUUCUGGUGAAUCUGCGAAUUCUGCUGUAUAACUC [A13U U78A] | 1.21 |
| UAACAGGGGGCCUCAGCAGAAGCGUUCACGUCGCAGCCCCUGUCAGAUUCUGGUGAAUCUGCGAAUUCUGCUGUAUACCUC [A13U U78C] | 1.23 |
| UAACAGGGGGCCAAAGCAGAAGCGUCCACGUCGCAGCCCCUGUCAGAUUCUGGUGAAUCUGCGAAUUCUGCUGUAUAUCUC [C14A U26C] | 0.63 |
| UAACAGGGGGCCAAAGCAGAAGCGUUCACGUCGCAGCCCCUGUCAGAUUCUGGUGAAUCUGCUAAUUCUGCUGUAUAUCUC [C14A G63U] | 1.14 |
| UAACAGGGGGCCAAAGCAGAAGCGUUCACGUCGCAGCCCCUGUCAGAUUCUGGUGAAUCUGCAAAUUCUGCUGUAUAUCUC [C14A G63A] | 0.93 |
| UAACAGGGGGCCUCAGCAGAAGCGUUCACGUCGCAGCCCCUGUCAGAUUCUGGUGAAUCUGCGAAGUCUGCUGUAUAUCUC [A13U U66G] | 0.81 |
| UAACAGGGGGCCUCAGCAGAAGCGUUCACGUCGCAGCCCCUGUCAGAUUCUGGUGAAUCUGCGAAAUCUGCUGUAUAUCUC [A13U U66A] | 0.52 |
| UAACAGGGGGCCUCAGCAGAAGCGUUCACGUCGCAGCCCCUGUCAGAUUCUGGUGAAUCUGCGAACUCUGCUGUAUAUCUC [A13U U66C] | 0.48 |
| UAACAGGGGGCCAAAGCAGAAGCGUUCACGUCGCAGCCCCUGUCAGAUUCUGGUGAAUCUGCGAAUUCUGCUGUUUAUCUC [C14A A75U] | 1.23 |
| UAACAGGGGGCCUCAGCAGAAGCGUUCACGUCGCAGCCCCUGUCAGAUUCUGGUGAACCUGCGAAUUCUGCUGUAUAUCUC [A13U U58C] | 0.72 |
| UAACAGGGGGCCUCAGCAGAAGCGUUCACGUCGCAGCCCCUGUCAGAUUCUGGUGAAGCUGCGAAUUCUGCUGUAUAUCUC [A13U U58G] | 0.3 |

| Variant | self-cleavage |
| --- | --- |
| UAACAGGGGGCCAAAGCAGAAGCGUUCACGUCGCAGCCCCUGUCAGAUUCUGGGGAAUCUGCGAAUUCUGCUGUAUAUCUC [C14A U54G] | 1.21 |
| UAACAGGGGGCCAAAGCAGAAGCGUUCACGUCGCAGCCCCUGUCAGAUUCUGGAGAAUCUGCGAAUUCUGCUGUAUAUCUC [C14A U54A] | 1.19 |
| UAACAGGGGGCCAAAGCAGAAGCGUUCACGUCGCAGCCCCUGUCAGAUUCUGGUGAAUCUGCGAGUUCUGCUGUAUAUCUC [C14A A65G] | 0.78 |
| UAACAGGGGGCCAAAGCAGAUGCGUUCACGUCGCAGCCCCUGUCAGAUUCUGGUGAAUCUGCGAAUUCUGCUGUAUAUCUC [C14A A21U] | 0.34 |
| UAACAGGGGGCCAAAGCAGAAGCGUUCACGUCGCAGCCCCUGUCAGAUUCUGGUGAAUCCGCGAAUUCUGCUGUAUAUCUC [C14A U60C] | 0.29 |
| UAACAGGGGGCCAAAGCAGAAGCGUUCACGUCGCAGCCCCUGUCAGAUUCUGGUGAAUCUGCGAAUUCUUCUGUAUAUCUC [C14A G70U] | 0.22 |
| UAACAGGGGGCCAAAGCAGAAGCGUUCACGUCGCAGCCCCUGUCAGAUUCUGGUGAAUCUGCGAAUCCUGCUGUAUAUCUC [C14A U67C] | 0.14 |
| UAACAGGGGGCCAAAGCAGAAGCGUUCACGUCGCAGCCCCUGUCAGAUUCUGGUGAUUCUGCGAAUUCUGCUGUAUAUCUC [C14A A57U] | 1.14 |
| UAACAGGGGGCCAAAGCAGAAGCGUUCACGUCGCAGCCCCUGUCAGAUUCUGGUGAAUCUGCGAACUCUGCUGUAUAUCUC [C14A U66C] | 0.4 |
| UAACAGGGGGCCUCAGCAGAAGCGUUCACGUCGCAGCCCCUGUCAGAUUCUGGUGAAUCUGCGAAUUCUGCAGUAUAUCUC [A13U U72A] | 0.77 |
| UAACAGGGGGCCUCAGCAGAAGCGUUCACGUCGCAGCCCCUGUCAGAUUCUGGUGAAUCUGCGAAUUCUGCGGUAUAUCUC [A13U U72G] | 0.76 |
| UAACAGGGGGCCUCAGCAGAAGCGUUCACGUCGCAGCCCCUGUCAGAUUCUGGUGAAUCUGCGAAUUCUGCCGUAUAUCUC [A13U U72C] | 0.96 |
| UAACAGGGGGCCAAAGCAGAAGCGUUCUCGUCGCAGCCCCUGUCAGAUUCUGGUGAAUCUGCGAAUUCUGCUGUAUAUCUC [C14A A28U] | 0.76 |
| UAACAGGGGGCCAAAGCAGAAGCGCUCACGUCGCAGCCCCUGUCAGAUUCUGGUGAAUCUGCGAAUUCUGCUGUAUAUCUC [C14A U25C] | 0.21 |
| UAACAGGGGGCCAAAGCAGAAGCCUUCACGUCGCAGCCCCUGUCAGAUUCUGGUGAAUCUGCGAAUUCUGCUGUAUAUCUC [C14A G24C] | 0.15 |
| UAACAGGGGGCCAAAGCAAAAGCGUUCACGUCGCAGCCCCUGUCAGAUUCUGGUGAAUCUGCGAAUUCUGCUGUAUAUCUC [C14A G19A] | 0.29 |
| UAACAGGGGGCCAAAGCAGGAGCGUUCACGUCGCAGCCCCUGUCAGAUUCUGGUGAAUCUGCGAAUUCUGCUGUAUAUCUC [C14A A20G] | 0.96 |
